{
  "source": "paper PMC9898865",
  "biological_target": "SARS-CoV-2 S protein (residues 1-1212 with stabilizing mutations R684G, R685S, R678G, K998P and V999 (SARS-CoV-2) (UniProt P0DTC2))",
  "experiment": "ELISA; ELISA-like solid-phase binding: ligands coated on 96-well plates in TBS, 6 h RT (S protein 20 µg/ml, vitronectin 5 µg/ml, fibrinogen 20 µg/ml, fibronectin 10 µg/ml); velcro-tagged integrins at 10 µg/ml in 20 mM Hepes, 150 mM NaCl, 1 mM MnCl2, pH 7.2, 2 h RT; detected by biotinylated anti-velcro antibody, streptavidin-HRP, ABTS, 405 nm",
  "data": [
    {"substance": "velcro-tagged integrin α5β1 (from UniProt P08648 42-995; P05556 21-728) (receptor)", "values": [
      {"measurement": "fold weaker than the binding to the physiological ligand (fibronectin)", "result": "< 10", "unit": "fold"}
    ]}
  ]
}
